Measurements reported in paper PMC11656743.
pKd: −log10 of the molar value. Where “and” joins values, the source holds several entries; their conditions need not be identical. Equal entries are not always repeated.

Key:
[1] = target: MoaB2 with C-terminal His-tag, for crystallography (strain LK2615) (M. smegmatis); assay: dynamic light scattering; 5 mg/mL MoaB2 in 20 mM Tris-HCl pH 8.0, 50 mM NaCl, 3 mM NaN3, 25°C
[2] = target: MoaB2 with C-terminal His-tag, for crystallography (strain LK2615) (M. smegmatis); assay: crystal structure; X-ray, 2.53 Å; crystals from 0.2 M calcium chloride, 14% PEG 400, 0.1 M sodium-HEPES pH 7.5
[3] = target: σ^A, recombinant, tag cleaved (strain LK2832) (M. smegmatis) (UniProt A0QW02); assay: AUC; multi-signal sedimentation velocity (absorbance 280 nm and interference) at σ^A:MoaB2 molar ratio 1:0.3
[4] = target: MoaB2, recombinant, tag cleaved (strain LK2936) (M. smegmatis) (UniProt A0R3I5); assay: AUC; sedimentation velocity, 20°C, 50 mM HEPES pH 7.5, 100 mM NaCl, 0.5 mM TCEP, 3 mM NaN3; σ^A 19.4 µM, MoaB2 77.6 µM, σ^A:MoaB2 mixtures 1:0.1 to 1:4
[5] = target: σ^A, recombinant, tag cleaved (strain LK2832) (M. smegmatis) (UniProt A0QW02); assay: as above
[6] = target: MoaB2, recombinant, tag cleaved (strain LK2936) (M. smegmatis) (UniProt A0R3I5); assay: SEC; Superdex 200 Increase 10/300, 25 mM Tris-HCl pH 7.5, 50 mM NaCl, 1 mM DTT, 15°C; fractions on SDS-PAGE

stoichiometry N [1]	stoichiometry N [2]	stoichiometry N [3]	stoichiometry N [4]	pKd [5]	stoichiometry N [5]	stoichiometry N [6]	Substance
6	6						MoaB2 with C-terminal His-tag, for crystallography (strain LK2615) (natural protein)
		1 σ^A:MoaB2	6 and 3	> 6.00	1 σ^A:MoaB2	6	MoaB2, recombinant, tag cleaved (strain LK2936) (from UniProt A0R3I5 1-178) (natural protein)
